The record followed here is patent publication US20250236653A1 (ONKO INNATE, published 2025).

Test [1] addresses T1, cynomolgus monkey OX40 (cynomolgus monkey).
T1 construct: whole, on cells; also called cOX40; cynomolgus OX40
Briefly: flow cytometry on cOX40-Jurkat-NF-κB cells.

The target of test [2] is T2, human OX40 (human, UniProt P43489 29-277).
T2 construct: whole, on cells; also called hOX40
T2 sequence (looked up): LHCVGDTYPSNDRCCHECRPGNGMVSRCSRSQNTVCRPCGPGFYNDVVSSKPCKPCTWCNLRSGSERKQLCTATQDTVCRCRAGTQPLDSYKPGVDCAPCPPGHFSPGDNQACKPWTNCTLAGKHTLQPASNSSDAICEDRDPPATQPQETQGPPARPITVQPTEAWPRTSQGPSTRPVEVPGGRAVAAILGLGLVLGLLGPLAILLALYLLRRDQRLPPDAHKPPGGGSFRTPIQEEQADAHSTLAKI
The test is described as follows: flow cytometry, monovalent fusion protein on hOX40-Jurkat-NF-κB cells.

Test [3] addresses T2, human OX40. Briefly: flow cytometry on hOX40-Jurkat-NF-κB cells. On the procedure:
(§1) Stained hOX40-Jurkat-NF-κB and cOX40-Jurkat-NF-κB cells were analyzed by flow cytometry using a CytoFLEX (Beckman Coulter), the results of which are depicted in FIGS. 78 and 79, respectively, and summarized in FIG. 80.
Binding of each of the sequence optimized IL-12 ABD fusion proteins to hOX40-Jurkat-NF-κB cells was performed as described in Example 16, the results of which are depicted in FIG. 87 and summarized in FIG. 88.

The target of test [4] is T2, human OX40. The test is described as follows: competition, flow cytometry: inhibition of 2.5 nM A647-labelled OX40L-Fc binding to hOX40-Jurkat-NF-κB cells. The procedure:
To investigate whether any of BGB-A445, 20E5, or 12H3 competed with OX40L for the OX40 binding site, we assessed the capacity of these clones, either in traditional IgG1 monospecific, bivalent mAb format or as bispecific, monovalent IL-12 ABD fusion proteins, to block binding of OX40L to hOX40-Jurkat-NF-κB cells. For the experiment, 30,000 hOX40-Jurkat-NF-κB cells were pre-incubated with 0-450 nM mAb or IL-12 ABD fusion protein for 10 minutes on ice prior to being stained for an additional 10 minutes on ice with 2.5 nM OX40L-Fc (Sino Biological, catalogue number 13127-H01H) that had been coupled to an A647 fluorophore using a Zenon Human IgG labelling kit (Invitrogen, catalogue number Z25408). Stained hOX40-Jurkat-NF-κB cells were analyzed by flow cytometry, and are depicted as percentage of OX40L-Fc positive cells within the OX40 positive gate (defined using a non-competing anti-OX40 mAb (clone Ber-ACT35, BioLegend catalogue number 350012) in FIG. 89.

In test [5] the target is T1, cynomolgus monkey OX40. The test is described as follows: flow cytometry on cOX40-Jurkat-NF-κB cells, as in Example 16. On the procedure:
as §1
(§2) Sequences for the VH and VL domains of an additional anti-human OX40 antibody (clone 41) are provided in FIG. 112 (SEQ ID NOs: 170 and 171, respectively). To investigate whether clone 41 would be suitable for use within IL-12 ABD fusion proteins, this antibody was recombinantly expressed in bivalent human IgG1 format (termed ‘hG1-clone 41’) and subjected to protein A purification. […] Next, hG1-clone 41 was assessed for its capacity to block the binding of OX40L to hOX40-Jurkat-NF-κB cells, as described in Example 19. […] The capacity of hG1-clone 41 to block OX40L-induced signaling in hOX40-Jurkat-NF-κB cells was also assessed using a similar experimental setup as described in Example 20, the results of which are depicted in FIG. 117. […] Finally, the capacity of hG1-clone 41 to trigger OX40 signaling was assessed in hOX40-Jurkat-NF-κB cells, as described in Example 25.

Test [6] has as its target T2, human OX40. Briefly: flow cytometry on hOX40-Jurkat-NF-κB cells, as in Example 16. On the procedure: as §1, §2

B1: mono-mut23-20E5 (Fc fusion)
chain: IWELKKDVYVVELDWYPDAPGEMVVLTCDTPEEDGITWTLDQSSEVLGSGKTLTIQVKEFGDAGQYTCHKGGEVLSHSLLLLHKKEDGIWSTDILKDQKEPKNKTFLRCEAKNYSGRFTCWWLTTISTDLTFSVKSSRGSSDPQGVTCGAATLSAERVRGDNKEYEYSVECQEDSACPAAEESLPIEVMVDAVHKLKYENYTSSFFIRDIIKPDPPKNLQLKPLKNSRQVEVSWEYPDTWSTPHSYFSLTFSVQVQGKSKREKKDRVFTDKTSATVICRKNASISVRAQDRYYSSSWSEWASVPCSGGGGSGGGGSGGGGSGGGGSGGGGSRNLPVATPDPGMFPCLHHSQNLLRAVSNMLQKARQTLEFSPCTSEEIDHEDITKDKTSTVEACLPLELTKNESCLNSRETSFITNGSCLASRKTSFMMALCLSSIYEDLKMYQVEFKTMNAKLLMDPKRQIFLDQNMLAVIDELMQALNFNSETVPQKSSLEEPDFYKTAIKLCILLHAFRIRAVTIDRVMSYLNASGGGGSGGGGSEPKSSDKTHTCPPCPAPEFEGGPSVFLFPPKPKDTLMISRTPEVTCVVVDVSHEDPEVKFNWYVDGVEVHNAKTKPREEQYNSTYRVVSVLTVLHQDWLNGKEYKCKVSNKALPASIEKTISKAKGQPREPQVCTLPPSRDELTKNQVSLSCAVKGFYPSDIAVEWESNGQPENNYKTTPPVLDSDGSFFLVSKLTVDKSRWQQGNVFSCSVMHEALHNHYTQKSLSLSPG
heavy: QVQLVQSGAEVKKPGASVKVSCKASGYTFTSYVMHWVRQAPGQRLEWIGYINPYNDGTKYNEKFKGRATLTSDKSASTAYMELSSLRSEDTAVYYCANYYGSSLSMDYWGQGTLVTVSSASTKGPSVFPLAPSSKSTSGGTAALGCLVKDYFPEPVTVSWNSGALTSGVHTFPAVLQSSGLYSLSSVVTVPSSSLGTQTYICNVNHKPSNTKVDKKVEPKSCDKTHTCPPCPAPEFEGGPSVFLFPPKPKDTLMISRTPEVTCVVVDVSHEDPEVKFNWYVDGVEVHNAKTKPREEQYNSTYRVVSVLTVLHQDWLNGKEYKCKVSNKALPASIEKTISKAKGQPREPQVYTLPPCRDELTKNQVSLWCLVKGFYPSDIAVEWESNGQPENNYKTTPPVLDSDGSFFLYSKLTVDKSRWQQGNVFSCSVMHEALHNHYTQKSLSLSPG
light: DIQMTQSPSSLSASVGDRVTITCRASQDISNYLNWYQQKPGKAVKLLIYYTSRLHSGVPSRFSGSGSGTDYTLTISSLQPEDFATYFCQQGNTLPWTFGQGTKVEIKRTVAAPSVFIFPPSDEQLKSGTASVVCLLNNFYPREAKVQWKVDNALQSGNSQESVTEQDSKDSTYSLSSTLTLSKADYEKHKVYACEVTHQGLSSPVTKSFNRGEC
notes: Monovalent for OX40
For the molecule B1, the “fold difference of EC50 against hOX40-Jurkat-NF-κB cells” value in test [1] is at most 2 fold. The binding result in test [2] was “binds”.

B2: mono-mut23-12H3 (Fc fusion)
chain: B1 chain
heavy: QVQLVQSGAEVKKPGSSVKVSCKASGYTFKDYTMHWVRQAPGQGLEWIGGIYPNNGGSTYNQNFKDRVTLTADKSTSTAYMELSSLRSEDTAVYYCARMGYHGPHLDFDVWGQGTTVTVSSASTKGPSVFPLAPSSKSTSGGTAALGCLVKDYFPEPVTVSWNSGALTSGVHTFPAVLQSSGLYSLSSVVTVPSSSLGTQTYICNVNHKPSNTKVDKKVEPKSCDKTHTCPPCPAPEFEGGPSVFLFPPKPKDTLMISRTPEVTCVVVDVSHEDPEVKFNWYVDGVEVHNAKTKPREEQYNSTYRVVSVLTVLHQDWLNGKEYKCKVSNKALPASIEKTISKAKGQPREPQVYTLPPCRDELTKNQVSLWCLVKGFYPSDIAVEWESNGQPENNYKTTPPVLDSDGSFFLYSKLTVDKSRWQQGNVFSCSVMHEALHNHYTQKSLSLSPG
light: DIQMTQSPSSLSASVGDRVTITCKASQDVGAAVAWYQQKPGKAPKLLIYWASTRHTGVPSRFSGSGSGTDFTLTISSLQPEDFATYYCQQYINYPLTFGGGTKVEIKRTVAAPSVFIFPPSDEQLKSGTASVVCLLNNFYPREAKVQWKVDNALQSGNSQESVTEQDSKDSTYSLSSTLTLSKADYEKHKVYACEVTHQGLSSPVTKSFNRGEC
notes: Monovalent for OX40
Turning to B2, the “fold difference of EC50 against hOX40-Jurkat-NF-κB cells” value in test [1] is at most 2 fold. The EC50 in test [3] was 13.6 nM. The IC50 in test [4] turned out to be 227 nM.

B3: hG1-clone 41 (antibody, V domains shown)
VH: QVQLVESGGGVVQPGRSLRLSCAASGFTFSSYGMHWVRQAPGKGLEWVALISYDGSNKIYTDSVKGRFTISRDNSKNTLYLQMNSLRPEDTAVYYCAKGREIVATYFDYWGQGTLVTVSS
VL: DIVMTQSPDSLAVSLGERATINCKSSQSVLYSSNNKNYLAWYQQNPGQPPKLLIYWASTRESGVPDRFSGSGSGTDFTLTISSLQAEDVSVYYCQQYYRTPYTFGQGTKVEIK
notes: Recombinantly expressed in bivalent human IgG1 format
Regarding B3, the EC50 in test [5] turned out to be 1 nM; in test [6], 1.1 nM.
